According to patent US20200063100A1 (CRISPR THERAPEUTICS, published 2020):

Target: T1, biotinylated recombinant human BCMA (ACROS Cat# BC7-H82F0) (human, UniProt Q02223 1-54, biotinylated)
T1 construct: Bought reagent; also called biotinylated Human BCMA Protein, ACRO Biosystems; recombinant BCMA protein
T1 sequence (looked up): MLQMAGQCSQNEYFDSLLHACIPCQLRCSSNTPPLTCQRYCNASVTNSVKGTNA
Assay: flow cytometry, CAR T cells stained with biotinylated antigen

binding result: binds
B1: anti-BCMA CAR, expressed on gene-edited human T cells (other)
chain: QVQLVQSGAELKKPGASVKVSCKASGNTLTNYVIHWVRQAPGQRLEWMGYILPYNDLTKYSQKFQGRVTITRDKSASTAYMELSSLRSEDTAVYYCTRWDWDGFFDPWGQGTTVTVSSGGGGSGGGGSGGGGSEIVMTQSPATLSVSPGERASISCRASQSLVHSNGNTHLHWYQQRPGQAPRLLIYSVSNRFSEVPARFSGSGSGTDFTLTISSVESEDFAVYYCSQTSHIPYTFGGGTKLEIKSAAAFVPVFLPAKPTTTPAPRPPTPAPTIASQPLSLRPEACRPAAGGAVHTRGLDFACDIYIWAPLAGTCGVLLLSLVITLYCNHRNRKRGRKKLLYIFKQPFMRPVQTTQEEDGCSCRFPEEEEGGCELRVKFSRSADAPAYQQGQNQLYNELNLGRREEYDVLDKRRGRDPEMGGKPRRKNPQEGLYNELQKDKMAEAYSEIGMKGERRRGKGHDGLYQGLSTATKDTYDALHMQALPPR
notes: also called anti-BCMA (4-1BB co-stim) CAR
